Data: US20160362487A1 (Regeneron, published 2016)

T1: human IL-33 (R&D Systems, #3625-IL-010/CF) (human, UniProt O95760 112-270)
T1 construct: Commercial recombinant protein; also called hIL-33; interleukin-33
T1 sequence (looked up): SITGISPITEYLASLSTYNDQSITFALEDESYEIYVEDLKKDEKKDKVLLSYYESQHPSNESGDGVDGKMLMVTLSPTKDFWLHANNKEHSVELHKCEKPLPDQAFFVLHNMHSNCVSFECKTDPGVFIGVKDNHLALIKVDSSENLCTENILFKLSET

T2: cynomolgus monkey IL-33 expressed with a C-terminal hexahistidine tag (cynomolgus monkey)
T2 construct: also called MfIL-33-6His; Mf-IL-33-6His
T2 chain: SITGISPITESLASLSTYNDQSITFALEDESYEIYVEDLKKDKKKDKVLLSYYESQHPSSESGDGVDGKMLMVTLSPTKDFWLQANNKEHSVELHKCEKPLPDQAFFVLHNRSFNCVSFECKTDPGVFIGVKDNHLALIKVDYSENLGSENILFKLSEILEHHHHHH


How the values were obtained:
[1] = biological target: T1, human IL-33 (R&D Systems, …); assay: SPR 25C, pH6.0 chase, mAb captured
Experimental: (§1) Equilibrium dissociation constants (KD values) for IL-33 binding to purified anti-IL-33 monoclonal antibodies were determined using a real-time surface plasmon resonance biosensor using a Biacore 4000 instrument. The Biacore sensor surface was first derivatized by amine coupling with either a polyclonal rabbit anti-mouse antibody (GE, # BR-1008-38) or with a monoclonal mouse anti-human Fc antibody (GE, # BR-1008-39) to capture anti-IL-33 monoclonal antibodies expressed with mouse or with human IgG4 constant regions, respectively. All Biacore binding studies were performed in 0.01M ADA pH 7.4, 0.15M NaCl, 3 mM EDTA, and 0.05% v/v Surfactant Tween-20 (ABS-ET running buffer). […] Association of either hIL-33 or MfIL-33-6His to the captured monoclonal antibody was monitored for 4 minutes and their dissociation in ABS-ET running buffer was monitored for 10 minutes. The effect of reduced pH on the binding of each anti-IL-33 antibody to either hIL-33 or MfIL-33-6His was studied using an in-line pH chase assay format in 0.01M ADA pH 6.0, 0.15M NaCl, 3 mM EDTA, and 0.05% v/v Surfactant Tween-20 (ABS-ET pH6 buffer). To achieve this, association of either hIL-33 or MfIL-33-6His to the captured monoclonal antibody was monitored for 4 minutes in ABS-ET running buffer. Following a 30 second dissociation of either hIL-33 or MfIL-33-6His in ABS-ET running buffer, ABS-ET pH6 buffer was injected for 3 minutes, and the analyte dissociation under the low-pH conditions was measured. All the binding kinetic experiments were performed at both 25° C. and 37° C. Kinetic association (kₐ) and dissociation (kd) constants were determined by fitting the real-time sensorgrams to a 1:1 binding model using Scrubber 2.0c curve fitting software. Binding dissociation equilibrium constants (KD) and dissociative half-lives (t½) were calculated from the kinetic rate constants as: […]

[2] = biological target: T2, cynomolgus monkey IL-33 expressed with …; assay: SPR 25C, pH6.0 chase, mAb captured
Experimental: as §1

[3] = biological target: T1, human IL-33 (R&D Systems, …); assay: BLI; hIL-33 pre-mixed with mAb-2 Isotype control 2
Experimental: Binding competition between a panel of different anti-IL-33 monoclonal antibodies was determined using a real time, label-free bio-layer interferometry assay on an Octet® HTX biosensor (ForteBio, A Division of Pall Life Sciences). The experiment was performed at 25° C. using a buffer of 0.01M HEPES pH7.4, 0.15M NaCl, 0.05% v/v Surfactant Tween-20, and 0.1 mg/ml BSA (HBS-ET kinetics buffer) with the plate shaking at a speed of 1000 rpm. To assess whether two antibodies were able to compete with one another for binding to human IL-33, a pre-mix assay format was used where 100 nM of human IL-33 (R&D Systems; #3625-IL-010/CF) was pre-mixed with 500 nM of different anti-IL-33 monoclonal antibodies (subsequently referred to as mAb-2) for at least 2 hours prior to running the binding competition assay. […] Following the capture step, unoccupied anti-mouse Fc polyclonal antibody and anti-human Fc polyclonal antibody on the Octet biosensors were saturated by submerging them for 4 minutes into wells containing 200 μg/mL of a non-specific monoclonal antibody with a mouse Fc or with a human Fc, respectively. Finally, the Octet biosensors were immersed for 4 minutes into wells containing the pre-mixed samples of 100 nM of human IL-33 and 500 nM of mAb-2. At the end of each cycle, the non-covalently captured anti-IL-33 antibodies along with the bound pre-complex of human IL-33 and mAb-2 were removed from the biosensors using three alternate 20 second immersions into 10 mM HCl followed by submerging into HBS-ET kinetics buffer. The biosensors were washed in HBS-ET kinetics buffer in between every step of the experiment. The real-time binding response was monitored during the binding events, and the binding response (in units of nm) at the end of every step was recorded.

[4] = biological target: T2, cynomolgus monkey IL-33 expressed with …; assay: BLI; captured MfIL-33-6His, mAb-1 step with Isotype control
Experimental: Binding competition between a panel of different anti-IL-33 monoclonal antibodies was determined using a real time, label-free bio-layer interferometry assay on an Octet® HTX biosensor (ForteBio, A Division of Pall Life Sciences). The experiment was performed at 25° C. using a buffer of 0.01M HEPES pH7.4, 0.15M NaCl, 3 mM EDTA, 0.05% v/v Surfactant Tween-20, and 0.1 mg/ml BSA (HBS-ET kinetics buffer) with the plate shaking at a speed of 1000 rpm. […] The antigen-captured biosensors were then saturated with a first anti-IL-33 monoclonal antibody (subsequently referred to as mAb-1) by immersion into wells containing 50 μg/mL solution of mAb-1 for 5 minutes. The biosensors were then dipped into wells containing a 50 μg/mL solution of a second anti-IL-33 monoclonal antibody (subsequently referred to as mAb-2) for 4 minutes. The biosensors were washed in HBS-ET kinetics buffer in between every step of the experiment. The real-time binding response was monitored during the experiment, and the maximum binding response for each binding step was recorded. The response of mAb-2 binding to MfIL-33-6His pre-complexed with mAb-1 was measured, and competitive/non-competitive behavior of different anti-IL-33 monoclonal antibodies with respect to each other was determined.

| Binder | koff [1] [s⁻¹] | t½ [1] [min] | t½ Ratio (pH 7.4/pH 6.0) [1] | koff [2] [s⁻¹] | t½ [2] [min] | t½ Ratio (pH 7.4/pH 6.0) [2] | mAb-1 Binding to the Pre-complex of mAb-2 & hIL-33 [3] [nm] | mAb-2 Binding to the Pre-complex of mAb-1 & MfIL-33-6xHis [4] [nm] |
| --- | --- | --- | --- | --- | --- | --- | --- | --- |
| H1M9568N (antibody, mouse IgG1, V domains shown, Human variable domains, mouse IgG1 Fc (H1M)) VH: QVLLVQSGAEVKKPGATVKVSCKASGSTFTGYYMHWVRQAPGQGLEWMGWINPNNGGTNYAQKFQGRVTMTRDTSISTAYMELSRLRSDDTAVYYCARELRYNWKSWGQGTLVTVSS VL: EIVLTQSPGTLSLSPGERVTLSCRASQSVGRPYLAWYQQIPGQAPRLLIYGASSRATDIPDRFSGNGSGTDFTLTISRLEPEDFAVYYCQQYDNSPYTFGQGTRLEIK | 0.000178 | 65 | 1.4 | 0.000302 | 38 | 1.2 | 0.1 | 0.34 |
| H1M9566N (antibody, mouse IgG1, V domains shown, Human variable domains, mouse IgG1 Fc (H1M)) VH: EVQLLESGGDLVQPGGSLRLSCAASGFTFSSYAMSWVRQAPGKGLEWVSVISGSGSSTDYADSVKGRFTISRDNSRDTLHLQMNSLRAEDTAVYYCAKTFYYFYGLDVWGQGTTVTVSS VL: DIQMTQSPSSLSASLRDRVTITCRASQGISNYLAWYQQKPGKVPKVLIYAASTLQSGVPSRFSGSGSGTVFTLTISSLQTEDVATYYCQKYSSAPFTFGPGTKVDIK | 0.00011 | 105 | 11 | 0.000126 | 91 | 1.3 | 0.1 | 0.38 |
| H4H9633P (antibody, human IgG4, V domains shown, Human IgG4 Fc (H4H)) VH: EVQLVESGGGLVQPGGSLRLSCAASGFTFSSYVMSWVRQAPGKGLEWVSSISGNGGSTNYADSVKGRFTISRDNSKNTLFLEMNSLRAEDTAVYYCAKSLGTTTTFLGFDYWGQGTLVTVSS VL: DIQMTQSPSSVSASVGDRVTITCRASQGISSWLAWYQQKPGKAPKLLIYAASSLQSGVPSRFSGSGSGTYFTLTISSLQPEDFATYYCQQANSFPLTFGGGTKVEIK | 0.00081 | 14 | 2.9 | 0.00287 | 4 | 0.3 | 0.15 | 0.28 |
| H4H9666P (antibody, human IgG4, V domains shown, Human IgG4 Fc (H4H)) VH: QVQLVQSGAEVKKPGASVKVSCKASGYTFTSYGISWVRQAPGQGLEWMGWIRAYNGYTNYAQKFQGRVTMTTDTSTNTAYMELRTLNSDDTAVYYCARDRYSGSFHGNFDYWGQGTLVTVSS VL: DIQMTQSPSSVSASVGDRVTITCRASQGIFSWLAWYQQKPGKAPKVLIYAASNLESGVPSRFSGSGSGTDFTLTISSLQPEDFATYYCQQANSLPLTFGGGTKVEIK | 0.00134 | 9 | 4.8 | 0.00809 | 1.4 | 2.3 | 0.08 | 0.28 |
| H4H9676P (antibody, human IgG4, V domains shown, Human IgG4 Fc (H4H)) VH: EVQLVESGGGLVQPGGSLRLSCSASGFTFSSYAMNWVRQAPGKGLEWVTAISGSGGGTYYADSVKGRFTISRDNSKNSLFLQLNSLRAEDTAVYYCAKQTYTSSWYGGFDIWGQGTMVTVSS VL: DIQMTQSPSSVSASVGDRVTITCRASQGFSSWLAWYQQIPGKAPKLLIYAASRLQSGVPSRFRGSGSGTDFTLTISSLQPEDFATYYCQQANSFPLTFGGGTKVEIK | 0.00121 | 10 | 3.5 | 0.00145 | 8 | 0.4 | 0.1 | 0.25 |
| H4H9670P (antibody, V domains shown, Human IgG4 Fc (H4H)) VH: EVQLVESGGGLVQPGGSLRLSCAASGFTLSSYAMSWVRQAPGKGLEWVSAISGSGGSTYYADSVKGRFTISRDNSKNSLYLQLNSLRAEDTAVYYCAKTLYTTSWYGGFQHWGQGTLVTVSS VL: DIQMTQSPSSVSASIGDRVTITCRASQGISSWLAWYQQKPGKVPKLLIYAASSLQSGFPSRFSGSGSGTDFTLTISSLQPEDFATYYCQQTHSFPWTVGQGTKVEIK | 0.000825 | 14 | 2.9 | 0.000393 | 29 | 0.2 | 0.12 | 0.23 |
| H4H9672P (antibody, human IgG4, V domains shown, Human IgG4 Fc (H4H)) VH: EVQLVESGGGLVQPGGSLRLSCAASGFTLRSYVMYWVRQGPGKGLEGVSGISGSSGGTYYTDSVKGRFTISRDNSKNTLFLQMNSLRAEDTAVYFCARSVYSTTWYGGFQHWGQGTLVTVSS VL: DIQMTQSPSSVSVSVGDRVTITCRASQVISSWLAWYQLKPGKAPKLLIYAASSLQSGVPSRFSGSGSGTDFTLTISGLQPEDFAVYYCQQTNSFPLTFGGGTKVEIK | 0.00141 | 8 | 4 | 0.00267 | 4 | 0.7 | 0.08 | 0.25 |
| H1M9565N (antibody, mouse IgG1, V domains shown, Human variable domains, mouse IgG1 Fc (H1M)) VH: QVTLKESGPVLVKPTESLTLTCSVSGFSLSNVRMGVSWIRQSPGKALEWLAHIFSNDEKSYTTSLKTRLTISKDTSRSQVVLTMTDMDPGDTATYYCARIRNLAFNYWGQGTLVTVSS VL: not shown |  |  |  | 0.000143 | 81 | 2 | 0.03 | 0.34 |
